Assay results: PMC6815173 (Proceedings of the National Academy of Sciences of the …, 2019)

B1: full-length human αE-catenin (natural protein)
chain: GMTAVHAGNINFKWDPKSLEIRTLAVERLLEPLVTQVTTLVNTNSKGPSNKKRGRSKKAHVLAASVEQATENFLEKGDKIAKESQFLKEELVAAVEDVRKQGDLMKAAAGEFADDPCSSVKRGNMVRAARALLSAVTRLLILADMADVYKLLVQLKVVEDGILKLRNAGNEQDLGIQYKALKPEVDKLNIMAAKRQQELKDVGHRDQMAAARGILQKNVPILYTASQACLQHPDVAAYKANRDLIYKQLQQAVTGISNAAQATASDDASQHQGGGGGELAYALNNFDKQIIVDPLSFSEERFRPSLEERLESIISGAALMADSSCTRDDRRERIVAECNAVRQALQDLLSEYMGNAGRKERSDALNSAIDKMTKKTRDLRRQLRKAVMDHVSDSFLETNVPLLVLIEAAKNGNEKEVKEYAQVFREHANKLIEVANLACSISNNEEGVKLVRMSASQLEALCPQVINAALALAAKPQSKLAQENMDLFKEQWEKQVRVLTDAVDDITSIDDFLAVSENHILEDVNKCVIALQEKDVDGLDRTAGAIRGRAARVIHVVTSEMDNYEPGVYTEKVLEATKLLSNTVMPRFTEQVEAAVEALSSDPAQPMDENEFIDASRLVYDGIRDIRKAVLMIRTPEELDDSDFETEDFDVRSRTSVQTEDDQLIAGQSARAIMAQLPQEQKAKIAEQVASFQEEKSKLDAEVSKWDDSGNDIIVLAKQMCMIMMEMTDFTRGKGPLKNTSDVISAAKKIAEAGSRMDKLGRTIADHCPDSACKQDLLAYLQRIALYCHQLNICSKVKAEVQNLGGELVVSGVDSAMSLIQAAKNLMNAVVQTVKASYVASTKYQKSQGMASLNLPAVSWKMKAPEKKPLVKREKQDETQTKIKRASQKKHVNPVQALSEFKAMDSI
B2: entire cytoplasmic domain of human E-cadherin (EcadCT; residues 731 to 882) (domain or fragment)
chain: not shown
B3: full-length human β-catenin (natural protein)
chain: GMATQADLMELDMAMEPDRKAAVSHWQQQSYLDSGIHSGATTTAPSLSGKGNPEEEDVDTSQVLYEWEQGFSQSFTQEQVADIDGQYAMTRAQRVRAAMFPETLDEGMQIPSTQFDAAHPTNVQRLAEPSQMLKHAVVNLINYQDDAELATRAIPELTKLLNDEDQVVVNKAAVMVHQLSKKEASRHAIMRSPQMVSAIVRTMQNTNDVETARCTAGTLHNLSHHREGLLAIFKSGGIPALVKMLGSPVDSVLFYAITTLHNLLLHQEGAKMAVRLAGGLQKMVALLNKTNVKFLAITTDCLQILAYGNQESKLIILASGGPQALVNIMRTYTYEKLLWTTSRVLKVLSVCSSNKPAIVEAGGMQALGLHLTDPSQRLVQNCLWTLRNLSDAATKQEGMEGLLGTLVQLLGSDDINVVTCAAGILSNLTCNNYKNKMMVCQVGGIEALVRTVLRAGDREDITEPAICALRHLTSRHQEAEMAQNAVRLHYGLPVVVKLLHPPSHWPLIKATVGLIRNLALCPANHAPLREQGAIPRLVQLLVRAHQDTQRRTSMGGTQQQFVEGVRMEEIVEGCTGALHILARDVHNRIVIRGLNTIPLFVQLLYSPIENIQRVAAGVLCELAQDKEAAEAIEAEGATAPLTELLHSRNEGVATYAAAVLFRMSEDKPQDYKKRLSVELTSSLFRTEPMAWNETADLGLDIGAQGEPLGYRQDDPSYRSFHSGGYGQDALGMDPMMEHEMGGHHPGADYPVDGLPDLGHAQDLMDGLPPGDSNQLAWFDTDL
B4: complex of the β-catenin truncation mutant that lacks the N-terminal 107 residues with EcadCT (B_(N-107)E) (complex)
chain 1: QIPSTQFDAAHPTNVQRLAEPSQMLKHAVVNLINYQDDAELATRAIPELTKLLNDEDQVVVNKAAVMVHQLSKKEASRHAIMRSPQMVSAIVRTMQNTNDVETARCTAGTLHNLSHHREGLLAIFKSGGIPALVKMLGSPVDSVLFYAITTLHNLLLHQEGAKMAVRLAGGLQKMVALLNKTNVKFLAITTDCLQILAYGNQESKLIILASGGPQALVNIMRTYTYEKLLWTTSRVLKVLSVCSSNKPAIVEAGGMQALGLHLTDPSQRLVQNCLWTLRNLSDAATKQEGMEGLLGTLVQLLGSDDINVVTCAAGILSNLTCNNYKNKMMVCQVGGIEALVRTVLRAGDREDITEPAICALRHLTSRHQEAEMAQNAVRLHYGLPVVVKLLHPPSHWPLIKATVGLIRNLALCPANHAPLREQGAIPRLVQLLVRAHQDTQRRTSMGGTQQQFVEGVRMEEIVEGCTGALHILARDVHNRIVIRGLNTIPLFVQLLYSPIENIQRVAAGVLCELAQDKEAAEAIEAEGATAPLTELLHSRNEGVATYAAAVLFRMSEDKPQDYKKRLSVELTSSLFRTEPMAWNETADLGLDIGAQGEPLGYRQDDPSYRSFHSGGYGQDALGMDPMMEHEMGGHHPGADYPVDGLPDLGHAQDLMDGLPPGDSNQLAWFDTDL
chain 2: not shown

What was measured:
[1] = target: β-catenin•epithelial cadherin cytoplasmic domain complex (BE) (human, UniProt P35222;P12830); assay: SPR
[2] = target: B3; assay: SPR
[3] = target: B1; assay: contrast variation small-angle neutron scattering
[4] = target: B1; assay: SPR

B1
Kd [1]: 119 ± 6.3 nM | koff [1]: 0.0004 s⁻¹

B2
Kd [2]: 104 ± 3.2 nM

B3
binding result [3]: binds

B4
Kd [4]: 12600 ± 758 nM | koff [4]: 0.002 s⁻¹
